Patent US20250051409A1, “MODULATORS OF PHOSPHATIDYLSERlNE DECARBOXYLASE AND USE THEREOF” (THE NATIONAL INSTITUTE FOR BIOTECHNOLOGY IN THE NEGEV LTD., priority 2021, published 2025)

Tests used:
[1] = biological target: T1, phosphatidylserine decarboxylase (PSD) (Homo sapiens, UniProt Q9UG56); assay: MST interaction of purified SMAC with purified PSD; type: binding; settings: SMAC 1 μM, PSD 78-625 nM, 30 min at 37° C., read-out: dissociation constant (Kd) of PSD interaction with SMAC
T1 construct: Purified recombinant protein (full length) of human phosphatidylserine decarboxylase (PSD); His tag (N); purchased Acris-OriGene; host or cells: E. coli
T1 sequence (Q9UG56 53-409): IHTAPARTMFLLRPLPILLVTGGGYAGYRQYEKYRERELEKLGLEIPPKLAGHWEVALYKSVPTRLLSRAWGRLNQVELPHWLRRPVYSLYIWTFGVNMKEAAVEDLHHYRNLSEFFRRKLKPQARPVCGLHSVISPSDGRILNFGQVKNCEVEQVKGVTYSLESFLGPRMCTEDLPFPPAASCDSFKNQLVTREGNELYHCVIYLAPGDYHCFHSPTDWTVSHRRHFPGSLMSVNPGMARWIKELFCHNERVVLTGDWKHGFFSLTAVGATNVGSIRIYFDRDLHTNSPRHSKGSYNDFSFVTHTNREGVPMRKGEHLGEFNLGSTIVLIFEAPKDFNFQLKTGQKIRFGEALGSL
Protocol: (A) Representative IF images for SMAC and PSD colocalization in A549 cells. Scale bars represent 10, 2.5 μm, as indicated. (B) PLA assay showing direct interaction between SMAC and PSD in A549 cells (scale bar represent 10 μm). Immunoblot (C) and quantitative analysis cells (D) of PSD and SMAC expression levels relative to WI-38 (n=3). PSD activity (n=6) (E) and PE levels (n=6) (F) were analyzed in the indicated cell lines. (G) Purified PSD and SMAC used in this study. (H) PSD interaction with SMAC analyzed using the MST method (n=4). Purified SMAC was fluorescently labelled with the NanoTemper BLUE protein-labelling kit. SMAC (1 μM) was incubated with purified PISD (78-625 nM) for 30 min at 37° C., then thermophoresis was measured as described in the Materials and Methods section hereinbelow. […] (I) Inhibition of PSD activity by SMAC, as measured using the DSB-3 method (n=4). Results are the mean±SEM. *P≤0.05; **P≤0.01; ***P≤0.001; NS, nonsignificant.
(§1) Human recombinant SMAC (10339-H08E) was produced by Sino Biologicals (Wayne, PA, USA). […]
MST analysis was performed using a NanoTemper Monolith NT.115 apparatus as described earlier (Wienken C J, et al., 2010. Nat Commun 1, 100). […] After a 30-min incubation, 8 μl of the samples were loaded into a glass capillary (Monolith NT Capillaries), and thermophoresis was analyzed (LED 20%, IR laser 20%).

[2] = biological target: T1, phosphatidylserine decarboxylase (PSD); assay: PSD activity inhibition, DSB-3 method; type: biochemical; settings: read-out: IC50 of SMAC inhibiting PSD activity
Protocol: PE content in the lipid samples was measured as described previously (Choi J Y, et al. 2018. J Biol Chem 293, 1493-1503). Briefly, solvent was evaporated from the lipid samples under nitrogen gas, and samples were re-suspended in 0.8 mM Triton X-100. Sample aliquots were added to 96-well plates containing (50 μl) reaction mixture (80 mM NaCl, 2 mM K2HPO4, pH 7.4), and borate buffer (12.5 μl) (100 mM boric acid, 75 mM NaCl, 25 mM sodium tetraborate, pH 9). After mixing, 12.5 μl of 100 μM DSB-3, in 10 mM K2HPO4 (pH 7.4), were added and incubated for 2 h in the dark with shaking (100 rpm). Fluorescence was measured using excitation λex=403 nm and emission λem=508 nm. A calibration curve was obtained using PE (Biovision, CA) as a standard.
To determine PSD activity, purified enzyme (0.2-0.4 μM) or crude cell lysate (0.25-0.5 μg of protein) was incubated with PS (50 μM) for 45 min at 30° C. in the dark with shaking under the conditions described above for PE determination. PSD activity was measured by determining the PE produced as described above, except that the signal obtained in the absence of substrate PS (representing endogenous PE) was subtracted from the signal obtained in the presence of PS.
as §1

B1: SMAC: Human recombinant SMAC (10339-H08E) produced by Sino Biologicals (protein)
chain: AVPIAQKSEPHSLSSEALMRRAVSLVTDSTSTFLSQTTYALIEAITEYTKAVYTLTSLYRQYTSLLGKMNSEEEDEVWQVIIGARAEMTSKHQEYLKLETTWMTAVGLSEMAAEAAYQTGADQASITARNHIQLVKLQVEEVHQLSRKAETKLAEAQIEELRQKTQEEGEERAESEQEAYLRED
- Kd [1]: 246 nM
- IC50 [2]: 400 nM
